Reference: the Human Domainome abundance scans (Beltran et al. 2025)
± gives the uncertainty stated by the source.

B1: Triacylglycerol hydrolase DDHD2, residues 389 to 447; numbered along this chain, O94830 (parent)
chain: TLEEDLKKLQLSEFFDIFEKEKVDKEALALCTDRDLQEIGIPLGPRKKILNYFSTRKNS

Variants of: B1
Test: abundance fitness (aPCA) (normalised: wild type 0, dead -1); higher = more abundant; growth selection in yeast, the domain comes from the species named
Conditions: Homo sapiens

Variant | abundance fitness
TLEEDLKKLQLSEFFDIFEKEKVDKEALALCTDRDLQEIVIPLGPRKKILNYFSTRKNS | -0.689 ± 0.078
TLEEDLKKLQLSEFFDIFEKEKVDKEALALCTDRDLQEIGIPLGPRKKILNYFDTRKNS | -0.146 ± 0.095
TLEEDLKKLQLSEFFDIFEKEKVDKEALALCTDRDLQEIGIPLGPRKKILNYFETRKNS | -0.033 ± 0.073
TLEEDLKKLQLSEFFDIFEKEKVDKEALALCTDRDLQEIGIPLGPRKKILNYFWTRKNS | -0.471 ± 0.09
TLEEDLKKLQLSEFFDIFEKEKVDKEALALCTDRDLQEIGIPLGPRKKILNYFSTAKNS | 0.134 ± 0.069
TLEEDLKKLQLSEFFDIFEKEKVFKEALALCTDRDLQEIGIPLGPRKKILNYFSTRKNS | -0.033 ± 0.13
TLEEDLKKLQLSEFFDIFEKEKVMKEALALCTDRDLQEIGIPLGPRKKILNYFSTRKNS | -0.286 ± 0.13
TLEEDLKKLQLSEFTDIFEKEKVDKEALALCTDRDLQEIGIPLGPRKKILNYFSTRKNS | 0.112 ± 0.07
TLEEDLKKLQLSEFIDIFEKEKVDKEALALCTDRDLQEIGIPLGPRKKILNYFSTRKNS | -0.513 ± 0.23
TLEEDLKKLQLSEFFDIFECEKVDKEALALCTDRDLQEIGIPLGPRKKILNYFSTRKNS | -0.538 ± 0.14
TLEEDLKKLQLSEFFDIFEKEKVDKEALALCTDRDLQEIGIPLGPRKKILNYFSTRKNE | 0.075 ± 0.18
TLEEDLKKLQLSEFFDIFEKEKVDKEALALCTDRDLQEIGIPLGPRKKILNYFSTRKNA | -0.235 ± 0.1
TLEEDLKKLQLSEFFDIFEKLKVDKEALALCTDRDLQEIGIPLGPRKKILNYFSTRKNS | 0.45 ± 0.06
TLEEDLKKLQLSEFFDIFEKSKVDKEALALCTDRDLQEIGIPLGPRKKILNYFSTRKNS | 0.453 ± 0.064
TLEEDLKKLQLSEFFDIFEKDKVDKEALALCTDRDLQEIGIPLGPRKKILNYFSTRKNS | -0.275 ± 0.12
TLEEDLKKLQLSEFFDIFEKVKVDKEALALCTDRDLQEIGIPLGPRKKILNYFSTRKNS | 0.029 ± 0.075
TLEEDLKKLQLSEFFDIFEKCKVDKEALALCTDRDLQEIGIPLGPRKKILNYFSTRKNS | 0.257 ± 0.098
TLEEDLKKLQLSEFFDIFEKEKVDKEALALCTDQDLQEIGIPLGPRKKILNYFSTRKNS | 0.059 ± 0.1
TLEEDLKKLQLSEFFDIFEKEKVDKEALALCTDGDLQEIGIPLGPRKKILNYFSTRKNS | 0.201 ± 0.065
TLEEDLKKLQLSEFFDIFEKEKVDKEALALCTDRDLQEGGIPLGPRKKILNYFSTRKNS | -0.261 ± 0.079
TLEEDLKKLQLSEFFDIFEKEKVDKEALALCTDRDLQEYGIPLGPRKKILNYFSTRKNS | 0.548 ± 0.1
TLEEDLKKLQLSEFFDIFEKEKVDKEKLALCTDRDLQEIGIPLGPRKKILNYFSTRKNS | 0.67 ± 0.085
TLEEDLKKLQLSEFFDIFEKEKVDKEADALCTDRDLQEIGIPLGPRKKILNYFSTRKNS | -0.196 ± 0.12

Variant | abundance fitness
TLEEDLKKLQLSEFFDIFEKEKVDKEALALCDDRDLQEIGIPLGPRKKILNYFSTRKNS | -0.163 ± 0.097
TLEEDLKKLQLSEFFDIFEKEKVDKEALALCLDRDLQEIGIPLGPRKKILNYFSTRKNS | -0.907 ± 0.1
TLEEDLKKLQLSEFFDIFEKEKVDKEALALCTDRDLQEIGIPLGPRKKILNPFSTRKNS | -0.313 ± 0.12
TLEEDLKKLQLSEFFDIFEKEKVDKEALALCTDRDLQEIGIPLGPRKKILNEFSTRKNS | -0.075 ± 0.084
TLEEDLKKLQLSEFFDIFEKEKVDKEALALCTDRDLQEIGIPLGPRKKILNAFSTRKNS | -0.08 ± 0.077
TLEEDLKKLQLSEFFDIFEKEKVDKEALAVCTDRDLQEIGIPLGPRKKILNYFSTRKNS | 0.329 ± 0.075
TLEEDLKKLQLSEFFDIFEKEKVDKEALALCTDRWLQEIGIPLGPRKKILNYFSTRKNS | -0.429 ± 0.1
TLEEDLKKLQLSEFFDIFEKEKVDKEALALCTDRNLQEIGIPLGPRKKILNYFSTRKNS | -0.06 ± 0.12
TLEEDLKKLQLSEFFDIFEKEKVDKEALALCTDRDLQEIGIPLGPRKKILNYFSVRKNS | -0.152 ± 0.063
TLEEDLKKLQLSEFFDIFEKEKVDKEALALCTDRDLQEIGIPLGPRKKILNYFSNRKNS | 0.166 ± 0.12
TLEEDLKKLQLSEFFDIFEKEKVDKRALALCTDRDLQEIGIPLGPRKKILNYFSTRKNS | 0.137 ± 0.064
TLEEDLKKLQLSEFFDIFEKEKVDKEALALCTPRDLQEIGIPLGPRKKILNYFSTRKNS | -0.659 ± 0.11
TLEEDLKKLQLSEFFDIFEKEKVDKEALALCTKRDLQEIGIPLGPRKKILNYFSTRKNS | -0.489 ± 0.1
TLEEDLKKLQLSEFFDIFEKEKVDKEALALCTERDLQEIGIPLGPRKKILNYFSTRKNS | -0.058 ± 0.099
TLEEDLKKLQLSEFFDIFEKEKVDKEALALCTARDLQEIGIPLGPRKKILNYFSTRKNS | -0.107 ± 0.075
TLEEDLKKLQLSEFFDIKEKEKVDKEALALCTDRDLQEIGIPLGPRKKILNYFSTRKNS | -0.081 ± 0.13
TLEEDLKKLQLSEFFDIGEKEKVDKEALALCTDRDLQEIGIPLGPRKKILNYFSTRKNS | -0.644 ± 0.082
TLEEDLKKLQLSEFFDIFEKEKVDKEALALCTDRDLQEIGIPLGPSKKILNYFSTRKNS | -0.058 ± 0.066
TLEEDLKKLQLSEFFDIFEKEKVDKEALALCTDRDLQEIGIPLGPTKKILNYFSTRKNS | -0.224 ± 0.095
TLEEDLKKLQLSEFFDIFEKEKVDKEALALCTDRDLQEIGIPLGPQKKILNYFSTRKNS | -0.243 ± 0.12
TLEEDLKKLQLSEFFDIFEKEKVDKEALALCTDRDLQEIGIPLGPRKKILNYFSTRKAS | -0.193 ± 0.097
TLEEDLKKLQLSEFFDIFEKEKVDKEALALCTDRDLQEIGIPLGPRKKILNYHSTRKNS | -0.285 ± 0.13
